In US20240100176A1 (Eli Lilly, published 2024):

Assays:
[1] = target: T1, hexahistidine tagged human IL-4Rα ECD R148D (human, UniProt P24394 26-232); assay: capture ELISA: Ab1 on anti-human IgG Fc, His-tagged receptor at 1 µg/mL, anti-His HRP
T1 construct: not shown: hexahistidine tag
Description: (§1) Example 2d. […] Briefly, thirty surface amino acid residue substitutions were introduced individually into hexahistidine tagged human IL-4Rα extra cellular domain (ECD) as follows: K2D, E6R, K22D, P26R, T31R, F41A, L42G, L43G, E45R, E52R, G56R, D66R, A71R, Q82G, K87D, E94R, H107A, D108R, P124R, D125R, D143R, R148D, L155R, R160D, S164R, S168R, Q181R, P192R, K195D, or H197G. Each mutant protein having a single amino acid residue substitution as described above was transiently expressed in CHO cells and purified using standard immobilized metal affinity chromatography techniques. […] The plates were then washed 3 times with PBST and the exemplified human IL-4Rα antibody was added to the wells at a final concentration of 1 μg/mL in PBS-casein and incubated for 1 hour at room temperature. The plates were washed 3 times with PBST, the IL-4Rα mutant proteins were serially diluted 5-fold from 1 μg/mL for 3 points. in PBS-casein and added to the plate at 50 μL/well and incubated for 1 hour at room temperature. The plates were washed 3 times with PBST and a 1000-fold dilution of anti-histidine tag antibody HRP conjugate (R&D Systems, Cat. #MAB050H) in PBS-casein was added and incubated for 45 minutes at room temperature. The plates were washed 3 times, TMB substrate (Pierce, Cat. #34028) was added per manufacturer instructions, the reaction was quenched with H₂SO₄, and absorbance was read at 450 nm on an ELISA plate reader.

[2] = target: T2, hexahistidine tagged human IL-4Rα ECD E94R (human, UniProt P24394 26-232); assay: as above
T2 construct: not shown: hexahistidine tag
T2 sequence (P24394 26-232 E119R): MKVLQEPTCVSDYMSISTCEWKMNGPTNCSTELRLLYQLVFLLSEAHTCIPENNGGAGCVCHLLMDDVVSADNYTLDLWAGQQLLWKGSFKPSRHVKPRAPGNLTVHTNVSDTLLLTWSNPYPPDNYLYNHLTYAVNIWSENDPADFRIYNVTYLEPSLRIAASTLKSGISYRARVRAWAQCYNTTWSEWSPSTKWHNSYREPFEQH
Description: as §1

[3] = target: T3, hexahistidine tagged human IL-4Rα ECD T108R (human, UniProt P24394 26-232); assay: as above
T3 construct: also called D108R; not shown: hexahistidine tag
Description: as §1

[4] = target: T4, hexahistidine tagged human IL-4Rα ECD E52R (human, UniProt P24394 26-232); assay: as above
T4 construct: not shown: hexahistidine tag
T4 sequence (P24394 26-232 E77R): as the sequence (P24394 26-232 E119R) above, with E52R, R94E counted along it
Description: as §1

[5] = target: T5, hexahistidine tagged human IL-4Rα ECD H107A (human, UniProt P24394 26-232); assay: as above
T5 construct: not shown: hexahistidine tag
T5 sequence (P24394 26-232 H132A): as the sequence (P24394 26-232 E119R) above, with R94E, H107A counted along it
Description: as §1

[6] = target: T6, hexahistidine tagged human IL-4Rα ECD S164R (human, UniProt P24394 26-232); assay: as above
T6 construct: not shown: hexahistidine tag
Description: as §1

[7] = target: T7, hexahistidine tagged human IL-4Rα ECD D143R (human, UniProt P24394 26-232); assay: as above
T7 construct: not shown: hexahistidine tag
T7 sequence (P24394 26-232 D168R): as the sequence (P24394 26-232 E119R) above, with R94E, D143R counted along it
Description: as §1

[8] = target: T8, hexahistidine-tagged cynomolgus monkey IL-4Rα extracellular domain (cynomolgus monkey, UniProt P24394 26-231 (human entry)); assay: competition MSD ELISA (solution equilibrium, 37 °C), apparent KD, mean of 3 experiments
T8 construct: also called cynomolgus monkey IL-4Rα ECD; not shown: hexahistidine tag
T8 chain: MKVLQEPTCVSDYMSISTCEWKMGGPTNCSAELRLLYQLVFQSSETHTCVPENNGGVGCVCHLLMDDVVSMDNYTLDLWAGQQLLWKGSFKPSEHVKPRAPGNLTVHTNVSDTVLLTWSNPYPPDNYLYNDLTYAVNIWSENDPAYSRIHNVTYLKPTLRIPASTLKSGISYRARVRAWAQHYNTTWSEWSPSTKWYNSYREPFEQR
Protocol: Example 3a. […] A 96-well multi-array plate (Meso Scale Diagnostics, Cat. #L15XA-3) was coated at 4° C. overnight with 0.5 μg/mL hexahistidine-tagged human or cynomolgus monkey IL-4Rα ECD in phosphate buffered saline (PBS). Following coating, plates were washed 10 times with 200 μL PBST (PBS with 0.05% Tween® 20) and blocked with 300 μL/well of PBS casein blocking buffer (Pierce, Cat. #37528) at 37° C. for 1 hour. Plates were then washed 10 times as above, and 50 μL of the preincubated antibody:IL-4Rα dilution series was transferred to the wells and incubated at 37° C. with 300 rpm shaking for […]. Plates were washed 10 times with PBST, 50 μL of 1 μg/mL anti-human antibody sulfo-tag 20 (Meso Scale Diagnostics, Cat. #R32AJ-1) was added to the plates for the assay of Table 7a, and anti-Human NHP Kappa Light chain SULFO-TAG 20 (Meso Scale Diagnostics, Cat #D20TF-6) was added to the plates for the assay of Table 7b, and plates were incubated at 37° C. with 300 rpm shaking for 30 minutes. Plates were washed 10 times with PBST, 150 μL/well of 1× Read Buffer T was added to the wells and analyzed on a SECTOR® Imager 6000 (Meso Scale Diagnostics) 15 min after buffer addition. The apparent KD is determined by fitting a sigmoidal curve to the electrochemiluminescence (ECL) response vs. log (soluble IL-4Rα concentration) using GraphPad Prism 9. Data is graphed with normalized ECL values.

T1 sequence (P24394 26-232 R173D): as the sequence (P24394 26-232 E119R) above, with R94E, R148D counted along it

B1: anti-human IL-4Rα antibody Ab1 (antibody, human IgG4 S228P, kappa)
heavy: QVQLVESGGGLVQPGGSLRLSCVASGFTFSHSSMNWVRQAPGKGLEWVSYISRATGAVYYADSVKGRFTISRDNAKNSLYLQMNSLRDEDTAVYYCAREPVFDYWGQGTLVTVSSASTKGPCVFPLAPCSRSTSESTAALGCLVKDYFPEPVTVSWNSGALTSGVHTFPAVLQSSGLYSLSSVVTVPSSSLGTKTYTCNVDHKPSNTKVDKRVESKYGPPCPPCPAPEFLGGPSVFLFPPKPKDTLMISRTPEVTCVVVDVSQEDPEVKFNWYVDGVEVHNAKTKPREEQFNSTYRVVSVLTVLHQDWLNGKEYKCKVSNKGLPSSIEKTISKAKGQPREPQVYTLPPSREEMTKNQVSLTCLVKGFYPSDICVEWESNGQPENNYKTTPPVLDSDGSFFLYSRLTVDKSRWQQGNVFSCSVMHEALHNHYTQKSLSLSLG
light: DIQMTQSPSAMSASVGDRVTITCRASQDISNYLAWFQQKPGKVPTRLIYAASSLQSGVPSRFSGSGSGTEFTLTISSLQPEDFATYYCLQWSSYPRTFGQGTKVEIKRTVAAPSVFIFPPSDEQLKSGTASVVCLLNNFYPREAKVQWKVDNALQSGNSQESVTEQDSKDSTYSLSSTLTLSKADYEKHKVYACEVTHQGLSSPVTKSFNRGEC
notes: human kappa light chain; also called anti-human IL-4Rα Ab1; unconjugated Ab1
[1]
  ELISA (OD450): 1.76 OD450
[2]
  ELISA (OD450): 1.73 OD450
[3]
  ELISA (OD450): 1.88 OD450
[4]
  ELISA (OD450): 1.73 OD450
[5]
  ELISA (OD450): 1.89 OD450
[6]
  ELISA (OD450): 1.92 OD450
[7]
  ELISA (OD450): 1.75 OD450

B2: anti-human IL-4Rα Ab1 GC conjugate of Example 1b (n=4) (antibody, human IgG4 S228P, kappa)
heavy: QVQLVESGGGLVQPGGSLRLSCVASGFTFSHSSMNWVRQAPGKGLEWVSYISRATGAVYYADSVKGRFTISRDNAKNSLYLQMNSLRDEDTAVYYCAREPVFDYWGQGTLVTVSSASTKGPCVFPLAPCSRSTSESTAALGCLVKDYFPEPVTVSWNSGALTSGVHTFPAVLQSSGLYSLSSVVTVPSSSLGTKTYTCNVDHKPSNTKVDKRVESKYGPPCPPCPAPEFLGGPSVFLFPPKPKDTLMISRTPEVTCVVVDVSQEDPEVKFNWYVDGVEVHNAKTKPREEQFNSTYRVVSVLTVLHQDWLNGKEYKCKVSNKGLPSSIEKTISKAKGQPREPQVYTLPPSREEMTKNQVSLTCLVKGFYPSDICVEWESNGQPENNYKTTPPVLDSDGSFFLYSRLTVDKSRWQQGNVFSCSVMHEALHNHYTQKSLSLSLG
light: DIQMTQSPSAMSASVGDRVTITCRASQDISNYLAWFQQKPGKVPTRLIYAASSLQSGVPSRFSGSGSGTEFTLTISSLQPEDFATYYCLQWSSYPRTFGQGTKVEIKRTVAAPSVFIFPPSDEQLKSGTASVVCLLNNFYPREAKVQWKVDNALQSGNSQESVTEQDSKDSTYSLSSTLTLSKADYEKHKVYACEVTHQGLSSPVTKSFNRGEC
modifications: glucocorticoid receptor agonist payload-linker (GC-L, Preparation 8) conjugated to the engineered cysteines at the 124 and 378 position of the heavy chain (EU numbering); n is 4 (average DAR 4.17 by RP-HPLC, 3.85 by TOF MS)
[8]
  Kd: 0.0458 nM
